{"source": "patent US20250025502A1", "about": "“COMPOSITIONS AND METHODS FOR CONTROLLING CELL SIGNALING WITH CHIMERIC RECEPTORS” (GentiBio, Inc., priority 2021, published 2025)", "tested_on": "IL10 signaling pathway (STAT3)", "assay": "SEAP colorimetric assay in reporter cells with RISE10 constructs", "format": "cell-based", "description": "FIG. 8 provides an example of CISC signaling through the IL10 signaling pathway. Cells were treated with IL10 or rapamycin at varying doses.\nThe signaling activity of RISE10 constructs (FIGS. 2 and 7) was examined. InvivoGen HEK-BLUE™ IL2 reporter cells, in which production of STAT3 (from IL10 signaling) leads to release of secreted embryonic alkaline phosphatase (SEAP), were used. The reporter cells were transfected with different levels of IL10, rapamycin and the RISE10 construct with a synthetic linker, (G4S)×3 (“CISC10 RaL”), or rapamycin and the RISE10 construct with IL10 hinge domains (“CISC10 RhL”). A colorimetric enzyme assay was performed to quantify the secreted embryonic alkaline phosphatase, and the results are shown in FIG. 8.", "data": [{"molecule": "IL10: interleukin IL10 used as stimulus for comparison in the reporter assay (protein, UniProt P22301 19-178, looked up) Interleukin-10: SPGQGTQSENSCTHFPGNLPNMLRDLRDAFSRVKTFFQMKDQLDNLLLKESLLEDFKGYLGCQALSEMIQFYLEEVMPQAENQDPDIKAHVNSLGENLKTLRLRLRRCHRFLPCENKSKAVEQVKNAFNKLQEKGIYKAMSEFDIFINYIEAYMTMKIRN", "values": [{"measurement": "IL10 dose giving similar peak plateau (SEAP)", "result": 10, "unit": "ng/mL"}]}]}
